From patent US20220380471A1 (US Dept. of Health and Human Services, published 2022)

T1: mouse B7H3-His (mouse, UniProt Q8VE98 29-244, limits assumed)
T1 construct: also called recombinant mouse B7H3-His protein; not shown: His tag
T1 sequence (looked up): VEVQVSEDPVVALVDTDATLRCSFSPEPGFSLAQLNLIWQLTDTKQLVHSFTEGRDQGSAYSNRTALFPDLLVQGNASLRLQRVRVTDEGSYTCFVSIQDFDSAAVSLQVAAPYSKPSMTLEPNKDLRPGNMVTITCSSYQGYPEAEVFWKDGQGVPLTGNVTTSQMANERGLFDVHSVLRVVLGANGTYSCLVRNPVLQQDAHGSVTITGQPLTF

T2: hB7H3-His (human, UniProt Q5ZPR3 29-461, limits assumed)
T2 construct: not shown: His tag
T2 sequence (looked up): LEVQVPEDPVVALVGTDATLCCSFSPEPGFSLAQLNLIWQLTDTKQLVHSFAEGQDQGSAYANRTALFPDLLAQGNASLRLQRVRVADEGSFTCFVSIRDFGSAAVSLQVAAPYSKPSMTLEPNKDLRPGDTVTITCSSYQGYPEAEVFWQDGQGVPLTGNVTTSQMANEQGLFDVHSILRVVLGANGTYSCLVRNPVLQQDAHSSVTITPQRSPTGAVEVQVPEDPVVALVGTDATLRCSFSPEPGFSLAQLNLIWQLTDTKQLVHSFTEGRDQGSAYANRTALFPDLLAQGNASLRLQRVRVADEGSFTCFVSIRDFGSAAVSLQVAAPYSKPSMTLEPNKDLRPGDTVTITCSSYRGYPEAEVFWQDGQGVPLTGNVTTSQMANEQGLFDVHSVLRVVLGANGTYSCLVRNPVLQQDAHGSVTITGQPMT

T3: recombinant human B7H3-Fc protein (human, UniProt Q5ZPR3 29-466, limits assumed)
T3 construct: 154 kDa non-reduced, 77 kDa reduced; also called hB7H3-Fc; not shown: Fc part
T3 sequence (looked up): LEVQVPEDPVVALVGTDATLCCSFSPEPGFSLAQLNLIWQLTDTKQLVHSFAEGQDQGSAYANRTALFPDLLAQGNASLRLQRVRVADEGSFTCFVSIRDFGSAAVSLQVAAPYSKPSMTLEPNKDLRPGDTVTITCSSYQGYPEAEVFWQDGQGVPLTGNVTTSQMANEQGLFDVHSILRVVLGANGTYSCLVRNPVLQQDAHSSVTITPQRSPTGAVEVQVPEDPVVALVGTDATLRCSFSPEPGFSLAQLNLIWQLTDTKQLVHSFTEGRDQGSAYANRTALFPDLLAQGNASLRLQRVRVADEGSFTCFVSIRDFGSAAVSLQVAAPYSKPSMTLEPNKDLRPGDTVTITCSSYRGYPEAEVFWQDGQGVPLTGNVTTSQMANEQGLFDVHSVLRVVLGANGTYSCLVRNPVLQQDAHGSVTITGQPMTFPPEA

B1: RWG8 (VHH)
VHH: DVQLVESGGGLVQPGGSLRLSCAASGFTFSRYWMGWFRQAPGKGVEWVSTINSGGGSTYYADSVKGRFTISRDNAKNTLYLQLNNLKTEDTAMYYCAKEQWRTGSRGQGTQVTVSS
notes: Camel VHH; tag not described; also called camel antibody RWG8
B2: RWB12 (VHH)
VHH: QVQLVESGGGSVQVGGSLRLSCAASGFTYNSYSVGWFRQAPGKEREGVAAINSGGSSTYYAASVKGRFTISRDNAKNTVYLQMNSLKPEDTAMYYCAARSPSPLTFQTRTLREDSYNYWGQGTQVTVSS
notes: Camel VHH; tag not described; also called camel antibody RWB12
B3: RWC4 (VHH)
VHH: EVQLVESGGGSVQAGGSLRLSCVASEDSTSAMCMGWFRQAPGKEREGVACINPTGEVTWYGDSVKGRFTISRDTVKKIVYLQMNSLKPEDTAMYYCAARVTYGGDWSTDTDYEYWGQGTQVTVSS
notes: Camel VHH; tag not described; also called camel antibody RWC4
B4: RWG4 (VHH)
VHH: QVQLVQSGGGLVQPGGSLRLSCAASGFTFSVYWFYWVRQAPRQGLEWVSTIASNGSTYYSDSVKGRFTISRDNAKNTVYLQMNSLKPEDTAVYYCVSDPDYYSDYERAYKFWAQGTQVTVSS
notes: Camel VHH; tag not described; also called camel antibody RWG4

Tests used:
mouse B7H3-His = biological target: T1, mouse B7H3-His; assay: phage ELISA, cross-species
Method in brief: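 Libraries from eight individual camels supplied the camel VHH phage, which were panned on recombinant B7H3-Fc protein for 3 rounds. Phage ELISA then measured how the selected phage bound to immobilised antigens, namely human and other-species B7H3 or control proteins, with the ELISA signal as the recorded value.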

hB7H3-His [1] = biological target: T2, hB7H3-His; assay: ELISA; row B7H3-his; well 1 of 3
Method in brief: (§1)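 The values are ELISA signals for binding of purified camel VHH nanobodies to immobilised recombinant B7H3 fusion proteins and to non-B7H3 comparison proteins. The nanobodies came from phage panning on recombinant B7H3-Fc.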

hB7H3-His [2] = biological target: T2, hB7H3-His; assay: ELISA; row B7H3-his; well 2 of 3
Method in brief: as §1

Irrelevant antigen = biological target: T4, Irrelevant antigen; assay: ELISA; row Irrelevant antigen; well 3 of 3
T4 construct: negative control
Method in brief: as §1

[3] = biological target: T3, recombinant human B7H3-Fc protein; assay: BLI (Octet), human B7H3-Fc; same value printed for 660, 132 and 26.4 nM
Protocol: FIG. 12: Kinetics of RWC4 on human B7H3-Fc. The association/dissociation properties of RWC4 were measured on the Octet system (Creative Biolabs) using recombinant human B7H3-Fc protein.
(§2) The association/dissociation properties of RWC4 and RWG4 were measured on the Octet system (Creative Biolabs) using either recombinant human B7H3-Fc protein or recombinant mouse B7H3-His protein.

[4] = biological target: T3, recombinant human B7H3-Fc protein; assay: BLI (Octet), human B7H3-Fc; same value printed for 660, 528, 264, 198, 66 and 33 nM
Protocol: FIG. 13: Kinetics of RWG4 on human B7H3-Fc. The association/dissociation properties of RWG4 were measured on the Octet system (Creative Biolabs) using recombinant human B7H3-Fc protein.
as §2

Binder	ELISA signal (mouse B7H3-His)	ELISA reading (name not given) (hB7H3-His [1])	ELISA reading (name not given) (hB7H3-His [2])	ELISA reading (name not given) (Irrelevant antigen)	Kd [3]	koff [3]	kon [3]	Kd [4]	koff [4]	kon [4]
B1	2.47	0.0693	0.0686	0.114						
B2		0.0603	0.0595	0.0853						
B3		0.114	0.0879	0.102	3.8 nM	0.000101 s⁻¹	26500 M⁻¹ s⁻¹			
B4	0.0665							6.94 nM	6.34e-05 s⁻¹	9130 M⁻¹ s⁻¹
